The supplement of paper PMC9876800

System: peptide library, one residue held at a place counted from the S/T acceptor
Experiment: relative phosphorylation of the sub-library (ratio to the mean residue at this position); higher = residue favoured
Settings: human
How it was run: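 Relative sub-library phosphorylation is a ratio to the mean residue at the same position. Purified recombinant kinases were incubated under kinase-specific conditions with biotinylated degenerate peptide sub-libraries, each fixing one residue at one position around a central Ser/Thr, using 50 μM peptide and 50 μM ATP spiked with γ-32P-ATP for 90 min. Spots captured on streptavidin membranes were phosphorimaged and quantified by densitometry.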

MARK3, construct: Full length, sequence (P27448 whole entry, looked up): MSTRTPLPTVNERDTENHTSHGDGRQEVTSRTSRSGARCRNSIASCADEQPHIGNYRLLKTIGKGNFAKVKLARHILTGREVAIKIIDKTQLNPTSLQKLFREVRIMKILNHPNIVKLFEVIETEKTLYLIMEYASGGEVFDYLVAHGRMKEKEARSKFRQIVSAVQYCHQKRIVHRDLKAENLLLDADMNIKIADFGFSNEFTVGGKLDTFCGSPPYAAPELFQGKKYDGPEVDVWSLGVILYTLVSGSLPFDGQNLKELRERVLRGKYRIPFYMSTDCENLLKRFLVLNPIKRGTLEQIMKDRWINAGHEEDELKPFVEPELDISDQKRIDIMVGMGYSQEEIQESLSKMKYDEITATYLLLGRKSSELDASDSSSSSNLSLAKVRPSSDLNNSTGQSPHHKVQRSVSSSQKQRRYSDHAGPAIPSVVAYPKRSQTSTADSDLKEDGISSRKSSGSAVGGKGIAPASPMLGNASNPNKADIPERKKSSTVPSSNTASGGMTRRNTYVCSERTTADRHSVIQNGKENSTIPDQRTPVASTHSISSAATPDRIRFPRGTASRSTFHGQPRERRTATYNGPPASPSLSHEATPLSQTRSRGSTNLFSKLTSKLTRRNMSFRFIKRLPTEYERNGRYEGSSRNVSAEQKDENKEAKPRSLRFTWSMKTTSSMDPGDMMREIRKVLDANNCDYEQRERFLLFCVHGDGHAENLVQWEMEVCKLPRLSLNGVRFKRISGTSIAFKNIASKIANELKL
HIPK4, construct: Full length, sequence (Q8NE63 whole entry, looked up): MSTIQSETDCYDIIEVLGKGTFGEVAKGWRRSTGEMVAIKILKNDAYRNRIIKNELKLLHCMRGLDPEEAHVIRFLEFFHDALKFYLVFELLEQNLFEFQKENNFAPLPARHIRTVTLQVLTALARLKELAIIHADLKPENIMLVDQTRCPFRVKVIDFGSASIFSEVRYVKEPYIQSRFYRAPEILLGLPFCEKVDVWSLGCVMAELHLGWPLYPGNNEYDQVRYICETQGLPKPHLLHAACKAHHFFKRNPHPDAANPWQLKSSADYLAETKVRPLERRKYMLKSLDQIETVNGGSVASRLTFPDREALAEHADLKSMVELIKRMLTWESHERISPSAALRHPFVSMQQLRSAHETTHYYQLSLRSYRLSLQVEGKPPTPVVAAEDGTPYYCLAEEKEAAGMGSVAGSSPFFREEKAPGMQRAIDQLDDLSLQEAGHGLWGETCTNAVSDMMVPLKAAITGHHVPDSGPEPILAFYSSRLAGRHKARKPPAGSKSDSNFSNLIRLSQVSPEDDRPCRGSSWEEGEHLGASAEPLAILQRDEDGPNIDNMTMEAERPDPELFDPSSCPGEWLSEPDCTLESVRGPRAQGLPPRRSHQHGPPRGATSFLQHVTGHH
CDK3, construct: Full length, sequence (Q00526 whole entry, looked up): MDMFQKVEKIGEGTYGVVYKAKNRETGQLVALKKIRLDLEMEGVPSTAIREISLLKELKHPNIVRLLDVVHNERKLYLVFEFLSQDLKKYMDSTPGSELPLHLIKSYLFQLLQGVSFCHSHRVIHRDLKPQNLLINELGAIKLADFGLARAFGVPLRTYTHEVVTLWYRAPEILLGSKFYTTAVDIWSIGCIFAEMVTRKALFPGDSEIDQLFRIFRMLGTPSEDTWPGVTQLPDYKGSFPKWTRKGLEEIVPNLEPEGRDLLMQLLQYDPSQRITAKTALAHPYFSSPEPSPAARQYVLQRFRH

MARK3, construct: Full length (from UniProt P27448)
relative phosphorylation
Settings | at +1 | at +2 | at +3 | at +4 | at -1 | at -2 | at -3 | at -4 | at -5
A fixed | 0.634 | 0.761 | 0.599 | 0.335 | 1.09 | 2.23 | 0.806 | 1.19 | 1.16
D fixed | 0.414 | 0.68 | 2.56 | 0.456 | 0.61 | 0.317 | 0.412 | 0.765 | 0.758
E fixed | 0.82 | 0.902 | 0.95 | 0.319 | 0.605 | 0.263 | 0.458 | 0.703 | 0.72
F fixed | 0.651 | 0.746 | 0.792 | 0.619 | 0.499 | 1.29 | 0.758 | 0.987 | 1.12
G fixed | 0.542 | 0.47 | 0.559 | 0.385 | 2.52 | 1.37 | 0.687 | 1.32 | 1.03
H fixed | 0.76 | 0.879 | 1.56 | 0.489 | 0.708 | 1.21 | 1.41 | 1.19 | 0.86
I fixed | 1.14 | 0.863 | 0.486 | 2.82 | 0.441 | 0.444 | 0.497 | 0.565 | 0.817
K fixed | 0.932 | 0.651 | 0.731 | 0.487 | 1.92 | 0.995 | 2.2 | 1.71 | 1.4
L fixed | 1.25 | 1.16 | 0.782 | 5.82 | 0.654 | 0.392 | 0.6 | 0.642 | 1.49
M fixed | 2.38 | 0.994 | 0.708 | 1.22 | 0.75 | 0.571 | 0.772 | 0.833 | 1.06
N fixed | 1.26 | 0.998 | 3.05 | 0.526 | 1.06 | 0.583 | 0.682 | 0.916 | 0.627
P fixed | 0.337 | 0.826 | 0.2 | 0.348 | 1.37 | 0.546 | 0.925 | 1.13 | 0.964
Q fixed | 1.62 | 0.955 | 0.929 | 0.473 | 1.19 | 0.488 | 0.736 | 0.808 | 0.722
R fixed | 1.45 | 0.708 | 0.706 | 0.349 | 1.66 | 0.969 | 3.51 | 1.52 | 1.45
V fixed | 1.23 | 0.898 | 0.488 | 1.33 | 0.707 | 0.628 | 0.524 | 0.673 | 0.824
W fixed | 0.75 | 3.62 | 0.927 | 0.557 | 0.585 | 3.05 | 1.19 | 1.19 | 1.08
Y fixed | 0.831 | 0.888 | 0.969 | 0.461 | 0.633 | 1.65 | 0.83 | 0.856 | 0.915
pThr fixed | 1.49 | 1.34 | 0.404 | 0.369 | 0.348 | 0.44 | 0.553 | 0.726 | 0.573
pTyr fixed | 0.705 | 0.679 | 0.944 | 0.328 | 0.841 | 0.64 | 0.855 | 0.686 | 0.735

CDK3, construct: Full length (from UniProt Q00526)
relative phosphorylation
Settings | at +1 | at +2 | at +3 | at +4 | at -1 | at -2 | at -3 | at -4 | at -5
A fixed | 0.28 | 1.2 | 0.418 | 1.14 | 1.12 | 1.17 | 1.14 | 1.23 | 1.11
D fixed | 0.17 | 0.658 | 0.277 | 0.882 | 0.844 | 0.837 | 0.997 | 1.07 | 1.31
E fixed | 0.172 | 0.626 | 0.25 | 0.783 | 0.718 | 0.938 | 0.839 | 1.29 | 1.06
F fixed | 0.14 | 0.857 | 0.261 | 0.778 | 0.703 | 0.855 | 0.746 | 0.8 | 0.944
G fixed | 0.912 | 0.851 | 0.612 | 1.43 | 1.72 | 1.28 | 1.83 | 1.49 | 1.37
H fixed | 0.177 | 1.06 | 0.699 | 1.06 | 0.778 | 0.981 | 0.984 | 0.966 | 0.993
I fixed | 0.156 | 0.775 | 0.261 | 0.697 | 0.343 | 0.691 | 0.618 | 0.589 | 0.656
K fixed | 0.214 | 2 | 9.66 | 1.99 | 1.58 | 0.753 | 0.978 | 1.1 | 1.06
L fixed | 0.156 | 0.891 | 0.266 | 0.736 | 0.741 | 0.957 | 0.777 | 0.709 | 0.629
M fixed | 0.167 | 0.98 | 0.284 | 0.962 | 0.969 | 0.889 | 0.766 | 0.957 | 0.695
N fixed | 0.193 | 1.05 | 0.405 | 0.988 | 1.1 | 0.909 | 1.06 | 0.938 | 0.887
P fixed | 13.3 | 0.682 | 0.644 | 1.04 | 1.87 | 2.78 | 2.04 | 1.54 | 1.51
Q fixed | 0.212 | 1.29 | 0.401 | 0.933 | 1.17 | 0.825 | 0.943 | 0.836 | 0.915
R fixed | 0.2 | 1.9 | 1.69 | 1.1 | 1.48 | 0.835 | 1 | 1.01 | 1.12
V fixed | 0.216 | 0.851 | 0.302 | 0.682 | 0.453 | 0.688 | 0.654 | 0.602 | 0.832
W fixed | 0.155 | 0.653 | 0.277 | 1.05 | 0.613 | 0.867 | 0.807 | 0.969 | 1.01
Y fixed | 0.142 | 0.664 | 0.288 | 0.741 | 0.793 | 0.744 | 0.814 | 0.891 | 0.895
pThr fixed | 0.523 | 0.933 | 0.86 | 0.685 | 0.434 | 0.731 | 0.886 | 1 | 1.24
pTyr fixed | 0.633 | 0.538 | 0.927 | 0.718 | 0.48 | 0.698 | 0.853 | 0.982 | 0.947

HIPK4, construct: Full length (from UniProt Q8NE63)
relative phosphorylation
Settings | at +1 | at +2 | at +3 | at +4 | at -1 | at -2 | at -3 | at -4 | at -5
A fixed | 0.793 | 1.38 | 1.1 | 1.63 | 1.15 | 2.12 | 0.851 | 0.995 | 0.967
D fixed | 0.277 | 0.726 | 0.71 | 0.68 | 0.67 | 0.463 | 0.711 | 0.697 | 0.886
E fixed | 0.34 | 0.618 | 0.505 | 0.578 | 0.693 | 0.354 | 0.477 | 0.702 | 0.719
F fixed | 0.339 | 1.46 | 1.08 | 1.11 | 0.616 | 0.478 | 0.453 | 0.816 | 1.13
G fixed | 0.586 | 1.58 | 1.49 | 1.07 | 1.03 | 1.07 | 0.877 | 1.27 | 1.26
H fixed | 0.671 | 1.13 | 0.857 | 0.716 | 0.991 | 0.507 | 0.649 | 0.803 | 1.08
I fixed | 0.427 | 0.675 | 0.857 | 1.31 | 0.589 | 0.837 | 0.807 | 0.82 | 0.841
K fixed | 1 | 0.686 | 0.565 | 0.63 | 1.72 | 0.808 | 0.926 | 0.864 | 0.833
L fixed | 0.508 | 0.696 | 0.816 | 1.64 | 0.783 | 0.916 | 0.669 | 1.12 | 0.968
M fixed | 0.403 | 0.805 | 0.812 | 1.53 | 0.836 | 0.602 | 0.661 | 0.895 | 0.735
N fixed | 1.15 | 0.806 | 0.752 | 0.59 | 0.984 | 0.875 | 0.803 | 0.639 | 0.855
P fixed | 5 | 2.12 | 3.82 | 1.33 | 2.03 | 4.06 | 1.14 | 2.12 | 1.15
Q fixed | 0.894 | 0.753 | 0.657 | 0.631 | 1.23 | 0.639 | 0.799 | 0.759 | 0.842
R fixed | 3.2 | 0.719 | 0.525 | 0.503 | 1.57 | 1.35 | 5.38 | 2.01 | 1.47
V fixed | 0.684 | 0.669 | 0.647 | 1.28 | 0.687 | 1.09 | 0.615 | 0.67 | 0.793
W fixed | 0.314 | 0.988 | 0.947 | 1 | 0.592 | 0.401 | 0.562 | 0.955 | 1.25
Y fixed | 0.415 | 1.2 | 0.857 | 0.785 | 0.836 | 0.434 | 0.626 | 0.867 | 1.22
pThr fixed | 0.405 | 0.51 | 0.71 | 0.616 | 0.417 | 0.585 | 0.547 | 0.844 | 0.67
pTyr fixed | 0.36 | 0.516 | 0.998 | 0.728 | 0.619 | 0.404 | 0.561 | 0.697 | 0.898
